Stoichiometry N (HSP47 per collagen triple helix) data for 1 substance are collected here from PMC8626583, “Collagen’s primary structure determines collagen:HSP47 complex stoichiometry” (The Journal of Biological Chemistry, 2021).

For the test, the target named is collagen model peptide Ac-(PPG)2PTGPRG(PPG)2-NH2. The test is described as follows: crystal structure; HSP47 H273N/H274N with Ac-(PPG)2PTGPRG(PPG)2-NH2, space group P2_(1); crystallization conditions not told.

“HSP47 double-mutant H273N/H274N (natural protein)” displayed a stoichiometry N (HSP47 per collagen triple helix) of 2.
